Measured values reported in PMC3961337, “FRET-Based System for Probing Protein-Protein Interactions between σ^R and RsrA from Streptomyces Coelicolor in Response to the Redox Environment” (PLoS ONE, 2014).

B1: rsrA-cfp-pET28a (+) protein (RCP) (natural protein, S. coelicolor M145, UniProt Q7AKG8 1-105, looked up)
chain: MSCGEPHETDCSEILDHLYEFLDKEMPDSDCVKFEHHFEECSPCLEKYGLEQAVKKLVKRCCGQDDVPGDLRAKVMGRLDLIRSGQSVPEHDVAAAPSSSAPQES
notes: anti-sigma factor RsrA of Streptomyces coelicolor, amplified from the M145 genome with primers rsrAA and rsrAB; RsrA, then E-F (EcoRI site) and G-G-S, then CFP from M-V-S-K-G to M-D-E-L-Y-K (worked out from primers cfpA and cfpB), cloned NcoI/EcoRI/HindIII in pET28a (+); source: E. coli BL21 (DE3), purified (Ni-NTA); also co-expressed with SYP in E. coli BL21 (DE3) cells, unpurified; not shown: …
B2: RCP with the histidine tag removed by thrombin (zinc function assay) (natural protein, S. coelicolor M145, UniProt Q7AKG8 1-105, looked up)
chain: B1 chain
notes: anti-sigma factor RsrA of Streptomyces coelicolor, amplified from the M145 genome with primers rsrAA and rsrAB; Same construct as m4 after thrombin; Zinc removed with EDTA (apo-RCP); Zn-RCP is the same protein with 500 uM ZnSO4 added; also called apo-RCP; Zn-RCP; not shown: CFP (after a glycine-glycine-serine linker), C-terminal, kept; His tag, N-terminal, cleaved

Tests used:
Conditions in all cases: both partners purified
[1] = molecular target: T1, sigR-yfp-pET28a (+) protein (SYP) (S. coelicolor M145, UniProt Q7AKG9 1-227, biotinylated for the biolayer interferometry only); experiment: FRET or BRET; FRET efficiency titration: increasing SYP (or YFP) from 0.1 nM to 0.85 μM added to a determined concentration of RCP in binding buffer with 2.5 mM DTT; single-site binding curve
T1 construct: ECF sigma factor σR (SigR) of Streptomyces coelicolor, amplified from the M145 genome with primers sigRC and sigRD; the primers encode M-G-T-G-T-D-A at the start (after the NcoI site) and K-G-S-G-S before the HindIII site (worked out from the primers); σR, then K-L (HindIII site) and G-G-S, then YFP from M-V-S-K-G to M-D-E-L-Y-K (worked out from primers yfpC and yfpD), cloned NcoI/HindIII/XhoI in …
T1 sequence (Q7AKG9 whole entry): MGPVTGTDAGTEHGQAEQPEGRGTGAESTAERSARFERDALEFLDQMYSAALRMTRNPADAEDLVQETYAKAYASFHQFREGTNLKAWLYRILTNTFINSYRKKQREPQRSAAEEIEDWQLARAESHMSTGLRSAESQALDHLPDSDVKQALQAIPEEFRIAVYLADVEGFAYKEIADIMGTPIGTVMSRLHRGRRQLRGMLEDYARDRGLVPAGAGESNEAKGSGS

[2] = molecular target: T2, SYP with the histidine tag removed by thrombin (zinc function assay) (S. coelicolor M145, UniProt Q7AKG9 1-227); experiment: FRET or BRET; zinc function assay, Zn-sample (500 μM ZnSO4) after removal of DTT and addition of 1 mM diamide; FRET ratio emission 528 nm/478 nm
T2 construct: ECF sigma factor σR (SigR) of Streptomyces coelicolor, amplified from the M145 genome with primers sigRC and sigRD; the primers encode M-G-T-G-T-D-A at the start (after the NcoI site) and K-G-S-G-S before the HindIII site (worked out from the primers); Same construct as m3 after thrombin; not shown: YFP (after a glycine-glycine-serine linker), C-terminal, kept; His tag, N-terminal, cleaved
T2 sequence (Q7AKG9 whole entry): as above

[3] = molecular target: T2, SYP with the histidine tag removed by …; experiment: FRET or BRET; zinc function assay, apo-sample: His tags removed by thrombin, zinc removed with 5 mM EDTA; SYP and RCP at the same concentration, no ZnSO4; FRET ratio emission 528 nm/478 nm
[4] = molecular target: T2, SYP with the histidine tag removed by …; experiment: FRET or BRET; zinc function assay with ZnSO4: His tags removed by thrombin; increasing ZnSO4 added to the mixture (Fig. 4A) and 500 μM ZnSO4 for the spectra (Fig. 4B); FRET ratio emission 528 nm/478 nm

Binder	Kd [1] [nM]	FRET ratio (emission 528 nm/478 nm), Zn-sample with diamide [2]	FRET ratio (emission 528 nm/478 nm), no ZnSO4 added [3]	FRET ratio (emission 528 nm/478 nm), with 500 μM ZnSO4 [4]
B1	81 ± 29			
B2		2.2	2.3	2.8
